Assay results as given in article PMC2175135.

Molecular target: LexA-tpr-met-Gab1Cter Y473F Y590F (two-hybrid bait) (UniProt Q9QYY0)
Experiment: two-hybrid

- percent of the interaction with Gab1Cter: 25%
Substance: COOH-terminal SH2 domain of p85α PI(3)K (two-hybrid prey) (from UniProt P26450 624-718) (domain or fragment)
